Measurements published in PMC10696123 (iScience, 2023).

How the values were obtained:
FleR 1-473 [1] = biological target: FleR 1-473 (UniProt Q9I4N3); experiment: dynamic light scattering; conditions: reference: wild type FleRFL, acetyl phosphate treated; sites D53
FleR 1-473 [2] = biological target: FleR 1-473 (UniProt Q9I4N3); experiment: small-angle X-ray scattering; conditions: reference: non-phosphorylated FleR D53A; sites D53
SAXS = biological target: the molecule itself; experiment: SAXS
cross-linking = biological target: the molecule itself; experiment: cross-linking

FleR 1-473 (from UniProt Q9I4N3) FleR D53A, acetyl phosphate treated
other: hydrodynamic diameter (FleR 1-473 [1]): weaker; reference 23.17 ± 0.58

FleR 1-473 (from UniProt Q9I4N3) acetyl phosphate-phosphorylated FleR S150F
other: SAXS molecular mass (Bayesian inference) (FleR 1-473 [2]): stronger; reference 113650

B1: FleR D53A, non-phosphorylated, full length (natural protein, Pseudomonas aeruginosa (PAO1 strain), UniProt Q9I4N3 1-473, looked up)
chain: MAAKVLLVEDDRALREALSDTLLLGGHEFVAVDSAEAALPVLAREAFSLVISAVNMPGMDGHQLLGLIRTRYPHLPVLLMTAYGAVDRAVEAMRQGAADYLVKPFEARALLDLVARHALGQLPGSEEDGPVALEPASRQLLELAARVARSDSTVLISGESGTGKEVLANYIHQQSPRAGKPFIAINCAAIPDNMLEATLFGHEKGSFTGAIAAQPGKFELADGGTILLDEISEMPLGLQAKLLRVLQEREVERVGARKPINLDIRVLATTNRDLAAEVAAGRFREDLYYRLSVFPLAWRPLRERPADILPLAERLLRKHSRKMNLGAVALGPEAAQCLVRHAWPGNVRELDNAIQRALILQQGGLIQPADLCLTAPIGMPLAAPVPVPMPAMPPATPPSVEIPSPAAGQDASGALGDDLRRREFQVIIDTLRTERGRRKEAAERLGISPRTLRYKLAQMRDAGMDVEAYLYAI
stoichiometry N (SAXS): 2

B2: FleR S150F, full length, phosphorylated with acetyl phosphate (natural protein, Pseudomonas aeruginosa (PAO1 strain), UniProt Q9I4N3 1-473, looked up)
chain: MAAKVLLVEDDRALREALSDTLLLGGHEFVAVDSAEAALPVLAREAFSLVISDVNMPGMDGHQLLGLIRTRYPHLPVLLMTAYGAVDRAVEAMRQGAADYLVKPFEARALLDLVARHALGQLPGSEEDGPVALEPASRQLLELAARVARFDSTVLISGESGTGKEVLANYIHQQSPRAGKPFIAINCAAIPDNMLEATLFGHEKGSFTGAIAAQPGKFELADGGTILLDEISEMPLGLQAKLLRVLQEREVERVGARKPINLDIRVLATTNRDLAAEVAAGRFREDLYYRLSVFPLAWRPLRERPADILPLAERLLRKHSRKMNLGAVALGPEAAQCLVRHAWPGNVRELDNAIQRALILQQGGLIQPADLCLTAPIGMPLAAPVPVPMPAMPPATPPSVEIPSPAAGQDASGALGDDLRRREFQVIIDTLRTERGRRKEAAERLGISPRTLRYKLAQMRDAGMDVEAYLYAI
modifications: phosphorylated by acetyl phosphate (site D53)
stoichiometry N (SAXS): 7

B3: DNA-binding domain of FleR (FleRDBD, residues 412-473) (domain or fragment, Pseudomonas aeruginosa (PAO1 strain), UniProt Q9I4N3 412-473, looked up)
chain: SGALGDDLRRREFQVIIDTLRTERGRRKEAAERLGISPRTLRYKLAQMRDAGMDVEAYLYAI
stoichiometry N (cross-linking): 2
